Series [1] addresses T1, GST-AR1 (androgen receptor DNA- and steroid-binding domains) (Rattus norvegicus, UniProt P15207 P15207:541-902). Kind of series: footprint; site -140 to -117 protected within probasin 5'-flanking DNA. The note with it: tags: GST fusion, expressed in E. coli; chain copies: 2. On the procedure:
(§1) The DNase I footprinting was performed essentially as described (Von der Ahe et al., 1993; Rennie et al., 1993). Proteins (10 ng to 18 µg) were incubated with 20,000 cpm of the labelled DNA in 100 µl of DNA binding buffer for 30 min at 20° C. After adjusting the samples to 4 mM MgCl_2 and 2.5 CaCl_2 mM, 5 ng of DNase I was added and allowed to digest the DNA for 2 minutes at 20° C. The reaction was stopped by adding 100 µl of stop buffer (0.25% SDS, 0.3M EGTA, and 500 µg/ml of proteinase K) and incubated for 1 hour at 37° C. The samples were extracted with phenol-chloroform; precipitated with 0.2M sodium acetate, 85 µg/ml carrier tRNA, and 2 volumes of ethanol; redissolved in 3 µl of formamide dye solution. After heating at 70° C. for 10 minutes and rapid cooling on ice, the samples were loaded, together with an A+G Maxam-Gilbert sequencing reaction to obtain a purine ladder, on 7% polyacrylamide/urea gels (acrylamide:bis, 30:1) and run (Rennie et al., 1993). The gels were dried and set up for autoradiography.
(§2) The androgen response elements (ARE) are located at −241 to −223 (ARE-1) and −140 to −117 (ARE-2). The sequence of ARE-1 and ARE-2 in the 5'-flanking PB DNA were determined using DNase I footprinting assays with peptides containing the DNA-binding domain of the androgen receptor and later bioassay of the functional domains. […]

Series [2] deals with T2, GST-AR2 (androgen receptor DNA-binding domain and hinge region) (Rattus norvegicus, UniProt P15207 P15207:541-650). The series is described as above. The note with it: tags: GST fusion, expressed in E. coli; chain copies: 2. As for the experimental part:
as §1, §2

Series [3] deals with T1, GST-AR1 (androgen receptor DNA- and …). Kind of series: footprint; site -236 to -223 protected within probasin 5'-flanking DNA. The following applies: tags: GST fusion, expressed in E. coli; chain copies: 2. On the procedure:
as §1, §2

In series [4] the target is T2, GST-AR2 (androgen receptor DNA-binding …). Described as above. The note with it: tags: GST fusion, expressed in E. coli; chain copies: 2. On the procedure: as §1, §2
Series [5] deals with T3, androgen receptor (AR) (Rattus norvegicus, UniProt P15207 P15207:1-902). Kind of series: cell_activity; DHT, TK promoter CAT reporter. The note with it: chain copies: 2. On the procedure:
(§3) Cells which had undergone transient transfection were harvested in phosphate buffered saline containing 1 mM EDTA. After centrifugation at 2000×g for 4 min at room temperature, cells were lysed in 0.1M Tris-HCl/0.1% Triton X-100, pH 7.8 for 15 min on ice. Insoluble material was removed by centrifugation at 14,500×g, 15 minutes, at 4° C. The CAT activity in the cell extract was determined by a two-phase fluor diffusion assay (Nachtigal et al., 1989). Also, the DNA was isolated from the insoluble material and 2 µg samples were placed in duplicate on nitrocellulose membrane via slot-blot apparatus and probed with ^32P-labelled CAT insert DNA. Autoradiograms were analyzed by densitometry and all CAT activity data was normalized for transfection efficiency. For transgenic mice, a total cellular extract of each tissue was assayed for CAT activity.
(§4) Due to the lack of appropriate cell lines containing either androgen receptors and/or prostatic in origin, a range of cell lines was tested. The human prostatic cells LNCaP would express and androgen regulate PB-CAT-while HeLa, prostatic DU-145 and PC-3 cells required co-transfection of an androgen receptor expression vector for androgen regulation. […]

In series [6] the target is T4, glucocorticoid receptor (GR) (Rattus norvegicus, UniProt P06536 P06536:1-795). Description: cell_activity; DEX, TK promoter CAT reporter. The note with it: chain copies: 2. As for the experimental part:
as §3, §4

For series [7], the target named is T4, glucocorticoid receptor (GR). Kind of series: cell_activity; DEX, CAT reporter. The following applies: chain copies: 2. As for the experimental part:
as §3, §4

Series [8] has as its target T3, androgen receptor (AR). Description: cell_activity; DHT, CAT reporter. The note with it: chain copies: 2. On the procedure: as §3, §4

T1 sequence (P15207 541-902, one chain of several): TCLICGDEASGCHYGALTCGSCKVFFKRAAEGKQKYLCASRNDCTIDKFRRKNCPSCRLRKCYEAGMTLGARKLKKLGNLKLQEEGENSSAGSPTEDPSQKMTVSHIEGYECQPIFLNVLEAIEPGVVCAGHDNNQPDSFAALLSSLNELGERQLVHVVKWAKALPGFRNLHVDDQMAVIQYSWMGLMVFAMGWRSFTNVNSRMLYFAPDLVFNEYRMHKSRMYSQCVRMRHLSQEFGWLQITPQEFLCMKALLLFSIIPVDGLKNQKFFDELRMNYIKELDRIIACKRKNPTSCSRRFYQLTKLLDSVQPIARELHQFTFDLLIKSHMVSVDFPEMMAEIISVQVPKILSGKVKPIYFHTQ
T2 sequence (P15207 541-650, one chain of several): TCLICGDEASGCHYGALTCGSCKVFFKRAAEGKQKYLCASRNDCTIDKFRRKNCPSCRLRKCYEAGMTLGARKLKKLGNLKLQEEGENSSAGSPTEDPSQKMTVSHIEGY

B1: probasin ARE-2 (dsDNA)
DNA 1: GTAAAGTACTCCAAGAACCTATTT
DNA 2: AAATAGGTTCTTGGAGTACTTTAC
Take B1: the binding result in series [1] and in series [2] was “binds” in each case.

B2: probasin ARE-1 (dsDNA)
DNA 1: ATAGCATCTTGTTCTTAGT
DNA 2: ACTAAGAACAAGATGCTAT
B2: the binding result in series [3] and in series [4] was “binds” throughout.

B3: probasin -244 to -96 (dsDNA)
DNA 1: ATGATAGCATCTTGTTCTTAGTCTTTTTCTTAATAGGGACATAAAGCCCACAAATAAAAATATGCCTGAAGAATGGGACAGGCATTGGGCATTGTCCATGCCTAGTAAAGTACTCCAAGAACCTATTTGTATACTAGATGACACAATGT
DNA 2: ACATTGTGTCATCTAGTATACAAATAGGTTCTTGGAGTACTTTACTAGGCATGGACAATGCCCAATGCCTGTCCCATTCTTCAGGCATATTTTTATTTGTGGGCTTTATGTCCCTATTAAGAAAAAGACTAAGAACAAGATGCTATCAT
On to B3, for which the activity was 61 fold induction in the series with androgen receptor (AR) [5] and 96 fold induction in series [6].

B4: probasin -158 to +28 (dsDNA)
DNA 1: GGGCATTGTCCATGCCTAGTAAAGTACTCCAAGAACCTATTTGTATACTAGATGACACAATGTCAATGTCTGTGTACAACTGCCAACTGGGATGCAAGACACTGCCCATGCCAATCATCCTGAAAAGCAGCTATAAAAAGCAGGAAGCTACTCTGCACCTTGTCAGTGAGGTCCAGATACCTACAG
DNA 2: CTGTAGGTATCTGGACCTCACTGACAAGGTGCAGAGTAGCTTCCTGCTTTTTATAGCTGCTTTTCAGGATGATTGGCATGGGCAGTGTCTTGCATCCCAGTTGGCAGTTGTACACAGACATTGACATTGTGTCATCTAGTATACAAATAGGTTCTTGGAGTACTTTACTAGGCATGGACAATGCCC
Turning to B4, the activity is 1.2 fold induction in series [7] and 1.4 fold induction in the series with androgen receptor (AR) [8].

These data come from patent publication US5783681, “Androgen regulation with DNA sequences of rat probasin gene” (University of Manitoba).
